From patent US12134610B2, “Somatostatin subtype-2 receptor (SST2R) targeted therapeutics and uses thereof” (priority 2022, dated 2024)
Read-outs that look alike come from different tables or passages of the source.

Tests used:
[1] = target: T1, human somatostatin receptor subtype 2 (Homo sapiens, UniProt P30874); assay: Functional cAMP assay for SSTR2 agonists (HTRF) in CHO-K1 cells; format: cell-based; settings: CHO-K1 cells stably expressing human SST2, 20 min; read-out: hSST2 cAMP Avg EC50
T1 construct: expressed in transfected cells
T1 sequence (P30874 whole entry): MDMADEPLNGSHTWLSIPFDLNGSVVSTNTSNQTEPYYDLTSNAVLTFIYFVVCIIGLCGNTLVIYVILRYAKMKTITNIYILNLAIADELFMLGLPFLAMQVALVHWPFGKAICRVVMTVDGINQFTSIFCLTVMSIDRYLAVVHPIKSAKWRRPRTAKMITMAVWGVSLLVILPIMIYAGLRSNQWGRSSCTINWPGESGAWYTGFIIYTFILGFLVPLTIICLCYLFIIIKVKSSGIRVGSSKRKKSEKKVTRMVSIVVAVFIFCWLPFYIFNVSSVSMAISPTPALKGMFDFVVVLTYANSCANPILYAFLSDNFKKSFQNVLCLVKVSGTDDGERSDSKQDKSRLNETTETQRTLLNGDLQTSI
Method in brief: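 CHO-K1 cells stably expressing receptor, plated 4 days before assay, treated 20 min at 37° C. with compound (typically 0-10,000 nM final) plus IBMX and 1.6 μM NKH477 to raise cAMP. HTRF read, 665/620 nm ratio; cAMP from standard curve, EC50 fitted.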

SST2 = target: T2, SST2 (Homo sapiens, UniProt P30874); assay: PathHunter CHO-K1 SST2 internalization assay; format: cell-based; settings: PathHunter CHO-K1 SST2, 90 min; read-out: Internalization EC50
T2 construct: host or cells: PathHunter CHO-K1 SST2 cells
T2 sequence (P30874 whole entry): as above
Method in brief: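 PathHunter CHO-K1 SST2 cells, seeded and grown 48 h, were exposed to 11-point 1:3 dilutions of SMDC (top final 10 uM) for 90 min at 37 C, 5% CO2. Beta-Glo luminescence was read after 60 min at room temperature. Background-corrected duplicate means were fitted by four-parameter nonlinear regression to give IC50.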

[2] = tested on: NCI-H524 (ATCC) human small cell lung cancer cells; format: cell-based
Method in brief: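 NCI-H524 cells (5,000/well) were exposed 24 h after plating to SMDC for 2 h, 11-point two-fold series from 1 uM. After washout they grew a further 70 h. Proliferation was read by CellTiter-Glo luminescence, % inhibition taken vs untreated control, and IC50 fitted by four-parameter nonlinear regression.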

[3] = H524 tumor biodistribution model: tumor and plasma levels of SMDC and MMAE by LC/MS-MS; format: in vivo, female Athymic nude mice; settings: H524 tumor bearing nude mice
Method: In this example, 5 million H524 (Small Cell Lung Cancer) cells in 1:1 Matrigel: cold Media (RPMI1640) were injected into the subcutaneous (SQ) flank of female Athymic nude mice. Tumor volumes and body weights were measured twice a week. The tumors were allowed to grow until they reached 250-500 mm^3 in size before animals were randomized into groups (n=3/time point). Animals were injected intravenously with a SMDC of the present invention at a single dose of 500 nmol/kg. […] BLQ: Below Limit of Quantitation.

[4] = MMAE level 4 h after 500 nmol/kg IV of the conjugate
[5] = MMAE level 24 h after 500 nmol/kg IV of the conjugate
[6] = MMAE level 72 h after 500 nmol/kg IV of the conjugate
[7] = MMAE level 168 h after 500 nmol/kg IV of the conjugate
[8] = MMAE level 1 h after 500 nmol/kg IV of the conjugate

SMILES | EC50 [1] | EC50 (SST2) | EC50 ([2]; 2 h) | Conjugate Tumor (nM) ([3]; 72 h after 500 nmol/kg IV) | MMAE Plasma [3, 4] | MMAE Tumor [3, 4] | MMAE Tumor [3, 5] | MMAE Plasma (nM) [3, 6] | MMAE Tumor [3, 6] | further results
CC[C@H](C)[C@@H]([C@@H](CC(=O)N1CCC[C@H]1[C@H](OC)[C@@H](C)C(=O)N[C@H](C)[C@@H](O)c1ccccc1)OC)N(C)C(=O)[C@@H](NC(=O)[C@H](C(C)C)N(C)C(=O)OCc1ccc(NC(=O)[C@H](CCCNC(N)=O)NC(=O)[C@@H](NC(=O)CCOCCC(=O)NCCNc2ncc(-c3cc(C)cc(F)c3)c(N3CCC(N)CC3)c2-c2nc3ccc(Cl)cc3[nH]2)C(C)C)c(O[C@@H]2O[C@H](C(=O)O)[C@@H](O)[C@H](O)[C@H]2O)c1)C(C)C [Compound 61] | 0.11 nM | 12.7 nM | 33.2 nM | BLQ | 0.754 nM | 75.0 nM | 320 nM | BLQ | 267 nM | Conjugate Plasma (nM) ([3]; 72 h after 500 nmol/kg IV): BLQ; Conjugate Plasma (nM) ([3]; 168 h after 500 nmol/kg IV): BLQ; Conjugate Tumor (nM) ([3]; 168 h after 500 nmol/kg IV): BLQ; MMAE Plasma (nM) [3, 7]: BLQ; MMAE Tumor [3, 7]: 97.8 nM; level at time molar at 4 h ([3]; female, Athymic nude, mouse, plasma, 4 h after 500 nmol/kg IV, read-out: Conjugate Plasma): 1100 nM; level at time molar at 24 h ([3]; female, Athymic nude, mouse, plasma, 24 h after 500 nmol/kg IV, read-out: Conjugate Plasma): 56.5 nM; level at time molar at 4 h ([3]; female, Athymic nude, mouse, 4 h after 500 nmol/kg IV, read-out: Conjugate Tumor): 181 nM; level at time molar at 24 h ([3]; female, Athymic nude, mouse, 24 h after 500 nmol/kg IV, read-out: Conjugate Tumor): 37 nM
CC[C@H](C)[C@@H]([C@@H](CC(=O)N1CCC[C@H]1[C@H](OC)[C@@H](C)C(=O)N[C@H](C)[C@@H](O)c1ccccc1)OC)N(C)C(=O)[C@@H](NC(=O)[C@H](C(C)C)N(C)C(=O)OCc1ccc(NC(=O)[C@H](C)NC(=O)[C@@H](NC(=O)CCOCCC(=O)NCCNc2ncc(-c3cc(C)cc(F)c3)c(N3CCC(N)CC3)c2-c2nc3ccc(Cl)cc3[nH]2)C(C)C)c(O[C@@H]2O[C@H](C(=O)O)[C@@H](O)[C@H](O)[C@H]2O)c1)C(C)C [Compound 68] | – | – | – | BLQ | 1.94 nM | 197 nM | 299 nM | BLQ | 231 nM | EC50 ([2]; 2 h treatment, washout, additional 70 h, read-out: H524 EC50): 11.2 nM; level at time molar at 24 h ([3]; 1 h after 500 nmol/kg IV, read-out: Conjugate Plasma): 1388 nM; level at time molar at 24 h ([3]; 1 h after 500 nmol/kg IV, read-out: Conjugate Tumor): 212 nM; level at time molar at 24 h ([3]; 4 h after 500 nmol/kg IV, read-out: Conjugate Plasma): 446 nM; level at time molar at 24 h ([3]; 4 h after 500 nmol/kg IV, read-out: Conjugate Tumor): 91.3 nM; level at time molar at 24 h ([3]; 24 h after 500 nmol/kg IV, read-out: Conjugate Plasma): 36.9 nM; level at time molar at 24 h ([3]; 24 h after 500 nmol/kg IV, read-out: Conjugate Tumor): 15.5 nM; level at time molar at 24 h ([3]; 72 h after 500 nmol/kg IV, read-out: Conjugate Plasma): 0.68 nM; MMAE Plasma [3, 8]: 8.82 nM; MMAE Tumor [3, 8]: 17.5 nM; MMAE Plasma [3, 5]: 0.416 nM
COc1cc2cc(c1Cl)N(C)C(=O)C[C@H](OC(=O)[C@@H](C)N(C)C(=O)CCSSCCOCCOCCOCCC(=O)NCCNc1ncc(-c3cc(C)cc(F)c3)c(N3CCC(N)CC3)c1-c1nc3ccc(Cl)cc3[nH]1)[C@]1(C)OC1[C@@H](C)C1C[C@@](O)(NC(=O)O1)[C@H](OC)/C=C/C=C(\C)C2 (stereo partly drawn) [Compound 19, (2S,5S,6S,16E,18E,20R,21S)-11-chloro-21-hydroxy-12,20-dimethoxy-2,5,9,16-tetramethyl-8,23-dioxo-4,24-dioxa-9,22-diazatetracyclo[19.3.1.1^10,14.0^3,5]hexacosa-10,12,14(26),16,18-pentaen-6-yl (2R)-2-{1-[(2-{[4-(4-aminopiperidin-1-yl)-3-(6-chloro-1H-1,3-benzodiazol-2-yl)-5-(3-fluoro-5-methylphenyl)pyridin-2-yl]amino}ethyl)carbamoyl]-N-methyl-3,6,9-trioxa-12,13-dithiahexadecan-16-amido}propanoate] | 0.44 nM | 7.1 nM | 20 nM | – | – | – | – | – | – | –
COc1cc2cc(c1Cl)N(C)C(=O)CC(OC(=O)[C@@H](C)N(C)C(=O)CCSSCCNC(=O)CN1CCN(CC(=O)O)CCN(CC(=O)NCCNc3ncc(-c4cc(C)cc(F)c4)c(N4CCC(N)CC4)c3-c3nc4ccc(Cl)cc4[nH]3)CC1)[C@]1(C)OC1[C@@H](C)C1C[C@@](O)(NC(=O)O1)[C@H](OC)/C=C/C=C(\C)C2 (some centres unmarked) [Compound 9] | 0.13 nM | 7.7 nM | 379 nM | – | – | – | – | – | – | –
